T1: 4H1845-bA
T1 chain: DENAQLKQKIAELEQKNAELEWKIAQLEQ

T2: 4H2442-bA
T2 chain: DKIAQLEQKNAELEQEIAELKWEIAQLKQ

T3: 4H2576-bA
T3 chain: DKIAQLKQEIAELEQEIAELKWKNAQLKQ

T4: 4H2610-bA
T4 chain: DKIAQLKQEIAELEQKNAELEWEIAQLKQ

T5: 4H2618-bA
T5 chain: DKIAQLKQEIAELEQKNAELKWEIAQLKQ

T6: 4H2667-bA
T6 chain: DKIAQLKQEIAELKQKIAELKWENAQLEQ

T7: 4H2697-bA
T7 chain: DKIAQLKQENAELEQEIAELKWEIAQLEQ

T8: 4H2729-bA
T8 chain: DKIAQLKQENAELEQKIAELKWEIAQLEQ

T9: 4H3010-bN
T9 chain: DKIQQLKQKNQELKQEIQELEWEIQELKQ

T10: 4H3112-bA
T10 chain: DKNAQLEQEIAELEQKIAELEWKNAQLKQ

T11: 4H3185-bA
T11 chain: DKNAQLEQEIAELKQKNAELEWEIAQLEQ

T12: 4H3189-bA
T12 chain: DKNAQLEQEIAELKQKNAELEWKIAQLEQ

T13: 4H331-bA
T13 chain: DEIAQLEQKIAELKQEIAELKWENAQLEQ

T14: 4H3354-bA
T14 chain: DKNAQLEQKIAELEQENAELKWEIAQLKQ

T15: 4H338-bA
T15 chain: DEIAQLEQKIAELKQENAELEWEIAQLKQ

T16: 4H3427-bA
T16 chain: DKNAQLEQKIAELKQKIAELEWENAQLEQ

T17: 4H3606-bA
T17 chain: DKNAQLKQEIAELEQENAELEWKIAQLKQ

T18: 4H370-bA
T18 chain: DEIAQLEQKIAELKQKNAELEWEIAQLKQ

T19: 4H3782-bA
T19 chain: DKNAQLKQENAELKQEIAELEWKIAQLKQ

T20: 4H3843-bA
T20 chain: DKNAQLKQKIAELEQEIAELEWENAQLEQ

T21: 4H3855-bA
T21 chain: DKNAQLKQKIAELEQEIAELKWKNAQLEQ

T22: 4H4001-bA
T22 chain: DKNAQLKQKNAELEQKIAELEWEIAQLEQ

T23: 4H454-bA
T23 chain: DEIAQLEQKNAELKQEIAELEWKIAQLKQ

T24: 4H462-bA
T24 chain: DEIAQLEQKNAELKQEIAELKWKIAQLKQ

T25: 4H568-bA
T25 chain: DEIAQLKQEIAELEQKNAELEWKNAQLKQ

T26: 4H607-bA
T26 chain: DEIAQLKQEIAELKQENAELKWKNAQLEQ

T27: 4H607-bN
T27 chain: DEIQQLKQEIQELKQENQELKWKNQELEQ

T28: 4H687-bA
T28 chain: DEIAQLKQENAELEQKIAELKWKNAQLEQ

T29: 4H717-bA
T29 chain: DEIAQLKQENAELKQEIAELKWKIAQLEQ

T30: 4H72-bA
T30 chain: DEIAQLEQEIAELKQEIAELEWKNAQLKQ

T31: 4H754-bA
T31 chain: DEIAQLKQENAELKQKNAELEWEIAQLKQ

T32: 4H797-bA
T32 chain: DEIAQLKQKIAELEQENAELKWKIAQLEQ

T33: 4H883-bA
T33 chain: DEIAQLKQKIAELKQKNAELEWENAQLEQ

T34: 4H908-bA
T34 chain: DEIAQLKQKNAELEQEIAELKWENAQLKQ

T35: 4H918-bA
T35 chain: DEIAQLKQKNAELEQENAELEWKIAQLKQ

T36: 4H953-bA
T36 chain: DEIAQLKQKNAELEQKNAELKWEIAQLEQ

T37: 4H967-bA
T37 chain: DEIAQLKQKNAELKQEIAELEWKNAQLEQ

T38: 4H3497-bA
T38 chain: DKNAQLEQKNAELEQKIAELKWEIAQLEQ

T39: 4H2619-bA
T39 chain: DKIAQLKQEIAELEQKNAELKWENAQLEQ

T40: 4H2691-bA
T40 chain: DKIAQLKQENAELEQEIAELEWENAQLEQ

T41: 4H2745-bA
T41 chain: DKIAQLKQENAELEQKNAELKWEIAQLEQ

T42: 4H3070-bA
T42 chain: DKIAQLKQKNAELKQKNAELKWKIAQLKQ

T43: 4H3129-bN
T43 chain: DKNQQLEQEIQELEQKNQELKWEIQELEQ

T44: 4H342-bA
T44 chain: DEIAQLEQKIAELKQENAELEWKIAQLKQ

T45: 4H344-bA
T45 chain: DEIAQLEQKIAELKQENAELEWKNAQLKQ

T46: 4H363-bA
T46 chain: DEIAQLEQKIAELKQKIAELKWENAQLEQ

T47: 4H3632-bA
T47 chain: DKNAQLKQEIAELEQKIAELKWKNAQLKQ

T48: 4H3907-bA
T48 chain: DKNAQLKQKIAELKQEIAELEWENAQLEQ

T49: 4H3961-bA
T49 chain: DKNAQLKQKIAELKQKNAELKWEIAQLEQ

T50: 4H470-bA
T50 chain: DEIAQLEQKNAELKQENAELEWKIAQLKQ

T51: 4H496-bA
T51 chain: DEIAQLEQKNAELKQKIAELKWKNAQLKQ

T52: O13-bH
T52 chain: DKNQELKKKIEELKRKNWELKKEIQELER


What was measured:
Assay in all cases: two-hybrid library CCNG1;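 also: natural log of median RNA to DNA barcode read ratio; higher means stronger binding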
[1] = target: T1, 4H1845-bA
[2] = target: T2, 4H2442-bA
[3] = target: T3, 4H2576-bA
[4] = target: T4, 4H2610-bA
[5] = target: T5, 4H2618-bA
[6] = target: T6, 4H2667-bA
[7] = target: T7, 4H2697-bA
[8] = target: T8, 4H2729-bA
[9] = target: T9, 4H3010-bN
[10] = target: T10, 4H3112-bA
[11] = target: T11, 4H3185-bA
[12] = target: T12, 4H3189-bA
[13] = target: T13, 4H331-bA
[14] = target: T14, 4H3354-bA
[15] = target: T15, 4H338-bA
[16] = target: T16, 4H3427-bA
[17] = target: T17, 4H3606-bA
[18] = target: T18, 4H370-bA
[19] = target: T19, 4H3782-bA
[20] = target: T20, 4H3843-bA
[21] = target: T21, 4H3855-bA
[22] = target: T22, 4H4001-bA
[23] = target: T23, 4H454-bA
[24] = target: T24, 4H462-bA
[25] = target: T25, 4H568-bA
[26] = target: T26, 4H607-bA
[27] = target: T27, 4H607-bN
[28] = target: T28, 4H687-bA
[29] = target: T29, 4H717-bA
[30] = target: T30, 4H72-bA
[31] = target: T31, 4H754-bA
[32] = target: T32, 4H797-bA
[33] = target: T33, 4H883-bA
[34] = target: T34, 4H908-bA
[35] = target: T35, 4H918-bA
[36] = target: T36, 4H953-bA
[37] = target: T37, 4H967-bA
[38] = target: T38, 4H3497-bA
[39] = target: T39, 4H2619-bA
[40] = target: T40, 4H2691-bA
[41] = target: T41, 4H2745-bA
[42] = target: T42, 4H3070-bA
[43] = target: T43, 4H3129-bN
[44] = target: T44, 4H342-bA
[45] = target: T45, 4H344-bA
[46] = target: T46, 4H363-bA
[47] = target: T47, 4H3632-bA
[48] = target: T48, 4H3907-bA
[49] = target: T49, 4H3961-bA
[50] = target: T50, 4H470-bA
[51] = target: T51, 4H496-bA
[52] = target: T52, O13-bH

interaction score [2]	interaction score [3]	interaction score [5]	interaction score [6]	interaction score [8]	interaction score [10]	interaction score [11]	interaction score [13]	interaction score [14]	interaction score [15]	interaction score [28]	interaction score [29]	interaction score [30]	interaction score [31]	interaction score [32]	interaction score [33]	interaction score [34]	interaction score [35]	interaction score [36]	interaction score [37]	Binder	further results
-0.649	0.69	-0.329	0.247	-0.636	-0.795	-0.124	-0.344	-0.823	-1.75	-0.612	-0.827	-0.517	-0.405	-0.424	-0.795	-1.42	-0.752	-1.23	-0.617	DENAQLKQKIAELEQKNAELEWKIAQLEQ [4H1845-bA]	interaction score [1]: 0.564; interaction score [4]: -0.596; interaction score [7]: -0.601; interaction score [9]: 0.0715; interaction score [12]: -0.547; interaction score [16]: -0.783; interaction score [17]: -1.46; interaction score [18]: -0.74; interaction score [19]: -0.678; interaction score [20]: -0.572; interaction score [21]: -1.1; interaction score [22]: -0.341; interaction score [23]: -0.0982; interaction score [24]: -0.986; interaction score [25]: -0.306; interaction score [26]: -1.7; interaction score [27]: -0.945
1.33	-0.202	0.238	-0.365	1.52	-0.0125	-0.212	-1.21	-0.829	-0.0859	-0.225	-0.902	-1.46	0.0444	-1.24	-1.15	-0.745	-1.46	-1.68	-1.64	DKIAQLEQKNAELEQEIAELKWEIAQLKQ [4H2442-bA]	interaction score [16]: 0.0308; interaction score [38]: 1.63; interaction score [19]: -1.13; interaction score [21]: -0.595; interaction score [22]: 0.5; interaction score [23]: 0.831; interaction score [25]: -1.89; interaction score [26]: -1.4
																				DKIAQLKQEIAELEQKNAELKWENAQLEQ [4H2619-bA]	interaction score [39]: 0.00432; interaction score [40]: -0.41; interaction score [41]: -0.393; interaction score [42]: -0.983; interaction score [43]: -2.48; interaction score [44]: 1.56; interaction score [45]: 2.12; interaction score [46]: -0.409; interaction score [47]: -1.09; interaction score [48]: -0.505; interaction score [49]: -0.981; interaction score [50]: -0.832; interaction score [51]: -0.573
										-1.03	-1.32	-0.595	-0.491	-0.624	-1.57	-0.749	-0.947	-1.51	1.07	DEIAQLKQENAELEQKIAELKWKNAQLEQ [4H687-bA]	interaction score [52]: 1.07
